According to the DeepSol protein solubility set:

test: soluble on expression in E. coli; label from the status in PepcDB or PDB records

Soluble on expression in E. coli, not soluble:
MGSDKIHHHHHHMSEQNLIEVRDLAVEFVTGDQVNRVVDGVSFDIRKGETLALVGESGSGKSVTAHSILRLLPYPLARHPSGSIRYEGKDLLQQSEKTLQRIRGNRIAMIFQEPMTSLNPLHCIEKQINEILLLHKGLTGKEATARTLELLDMVGIPEPRKRLKALPHELSGGQRQRVMIAMALANEPELLIADEPTTALDVTVQLKILELLKELQARMGMALLLISHDLNLVRRIAHRVCVMQRGQIVEQAECATLFSSPQHHYTQMLINAEPSGLPAHNPVGAPLLEVDDLKVWFPIKKGFLQRTVDHVKAVDGVNFSLPQGQTLGIVGESGSGKSTLGLAILRLISSQGGIRFHGQNLEGLNQKAVRPLRREMQVVFQDPFGSLSPRMCVADIVGEGLRIHRIGTAQEQEAAIIAALEEVGLDPRTRHRYPHEFSGGQRQRIAIARALVLKPALILLDEPTSALDRTVQRQVVELLRNLQQKYNLTYLFISHDLAVVKALSHQLMVIKHGHVVEQGDAQAIFHAPQHPYTRQLLEAAFLEVGG
MGSDKIHHHHHHMSETENNELTAGKQSKEPRSNQKLKLLYLAKILLNNTDANHDITLDEILNKLHAYDVTAARKSLYDDIAQLNDFGIKTQKTQYGRTVHYKVIGRAFELAELKLLVDSVAAAKFITEEKSNELIKKLESLTSRQEAATLQRQVYVAGRVKTMNSDIMKNVDAIHNAIANNSSLSFQYCRWNTKKELEVKHDGARYHVSPWGLLWNDGNYYLIGYDHDTQVKDIRHYRVDKMKNILIENKVREGREKLKKLDIASYGKSKFGMYNGEEIKAEILCKNSAIGVLIDRFGTDVTILKKDEAHSRVFVKVADNKLFIHWIMAMGDNFKIIGPENLVKEVHDELNRLAKQYELAD
MGSDKIHHHHHHMSFEKTSELIEKSRELQEVYQQLVEDVGLDLWRFCRYLTGSPWDGEDLYQETLVKAFGSLYQRWQPTNPKAYLFRIATNTWIDQCRKAKRIVGTVDEMEGPVEEFSNDLELEHAFTRLFTLFPPRQVAVFLLKDVFAFTAEEVASMVRSTSNGVYATSSRVRKKLKETASLEEELSSNGRPSPEQSEVIQQYLEAFNAGDLGKLFDLMSDEVHIDASLGFQEYSKEEMKKGSMQYGLPGFRAEPFVLWGKTVLVVLVDRDAGPLIHDIQFQEIENGKIVYHKSYYFCKEFLMGAAKELQLQVQLDKAAVHWRHSLDEGEL
MGSDKIHHHHHHMSFEQDSTPRGNPVSCESARETNEFSPGKTCIKLMNYRRLTPSMSLLLVFEAAARHESYTRAADELSLSQSAISRQVQTLEDQLGVSLFRREGRSVKLTEVGRRYFVELSGALGRIRGATLQAMSHQAGAGTLRLATLPTFGSKWLLPHLHDFYAAHPGVTVHLHSRIGGIDFHTDDLDAAITVGSGDWPGLHAHRLYNEFLIAIASPDAAGRRKAGPRAPAWAVGQTLLGVTSNQHAWAEWFSHFGLDHREMRIGPSFELTSHLIQAVRAGMGIGLVPKVLVEDELSRNELVSIGDAITSQRSYYLVYPPENDTLPSLVAFREWLLKSC
MGSDKIHHHHHHMSFGVNRDESSAFCQRAFEAENWRLAASAGLAPTLVAQSIDGRCYLSPLLEDGGWQQRYQEVPLSQITCDAAFFTSPGQTHAGSDREPDGLTHTTRLLLDLLLGLQALPVPANVKGFTTQWQDYETALDASQSHWARNPRWQEAYQALAAEFTEVEAAMARLDAMGLSCQYSHRDLTPHNLLCHQGKLFCIDFEYACASHPLWDLAAVLASHNLPGRERRDLMDAYLYAHPQLESSMSSRVVDAVALHWYFGAIWALLMAGQSGDDDYLCWFHRYLQLAKS
MGSDKIHHHHHHMSFPTIPDITPTISINRSDVINLLLASIAFEELGLAHIINAEAEKIQYILGTLSEQVPTEPPTQDDLIEINKSVNQTLRTVIKNQMLLQFKLEDLIVENPLPSITIKKYVSGDGGVTWYDADSPPGPTIDPEQVPMFRFVITNTGNVILTGVTVTDSVLGLISTGGILPPGAFFEEYRSGEYLGGDQSNTATVIGYYLDQQVEDSDVAYYTEPT
MGSDKIHHHHHHMSFRMIEPETIDDAAFVSSTVPETDAPVWDASTDYPFSDPDNPEEVIVEVGQHAIYRAVAPSGPSHGGAVDPATDTGNTKWVKIRSTNRWRVFDEYIGDPSVQANSAQWVITAPKVIDSVSLFGLYALSVTVLVRDSGGAEVYNQTYSLQDESGVVDLYTYLTSPIILSDRLVITDIPPYAGAKVTVTAEASGEDVEVGQIVIGRKEEIGVTIDEIPLSIQDFSRKERDPDFGRVSLLEKDFADEMPVAFVFPTSRASYLKSRLASRRAKLTVYSSDGPYKANEFSVYGFYQSFQVVPRIGSESEGILELESIT
MGSDKIHHHHHHMSGNESVVNYDHFIDKRRVRKAFERAAPLYDQAAVLQREVCDRMLSRLEYIKYMPDVVLDAGSGTGYGTCKLLERYPDASMLAIDIATGMHHQARQRMNSMIPRWRQLFGVGRNQRTSRVRYVAGDIEQLPLEDSCAGLVWSNLALQWCNDLKKTFDEMRRILKNGGLFMFSTFGPDTLKELRQAFRHADDYSHVNRFADMHDIGDMLVHSGFATPVMDMEYITLTYDEVISVMRDLKAIGAHNATGARHRGLTGKNAWQKAIGHYETLRTGGKLPATFEVVYGHAWKPAPRTSILTPETRRHIGLE
MGSDKIHHHHHHMSGPQKANDLLGQIPKTKGLPPVHLWNPDFCGDIDMRIARDGTWYYLGTPIGRKPMVKLFSTIIRRDGDDYFLITPVEKVGIKVDDAPFVAIAVEMEGEGEAQVLRFTTNVDETTEAGAEHLIRVEIDPVTQEPAPYVHVRTNLEALIHRNVFYQLVELAVSREIDGQRWLGVWSGGEFFRIGLEP
MGSDKIHHHHHHMSGTHDTKQAIASALIELCEQKDFRKISVQDITKKVGLNRQTFYYHFTDKYDLLRWIYRHDALIYLETDICLENWEEQALKLLKAIKEKSHFYYTTVTSDSEVLLNVFSASTNRLFISLFEQVDVENHLTDKDKQFYANFFSYGCSGVLTKWILEEYPQTPLEMATQLFRLAKDTEFMAYHLYEQEANE
MGSDKIHHHHHHMSIEQLADLTQPQRDRLAFVELRVRFIGEIRRQDLVSRFGIQSAAASRDLALYKELVPGNIDYDSKGKSYVLGPDFRPLFEFPPERVLSWLTQGFGDGEPMQLKAWVASESPSRLARPDLTVLASVTRAIHQGCPLAVEYHSISSGKANRQIVPFALIDDGQRWLVRAFDRESQQFRDFVITRIRNPQVLKGENPAPHEASDQDIQWTRILELDLVPHPNRPHPEISEMDYSMERGVWKMKLRAAMAGYILCKLRVDCSPTHKLNGSEHRLWLRNHLALYGVRSAVLAPGYESPEPVGQEQDGD
MGSDKIHHHHHHMSIKSDKWIRRMAAQHGMIEPFEPNPIRQVNGEKIVSYGTSSYGYDIRCADEFKVFTNINSTIVDPKNFDPNSFVEFKNDFCIIPPNSFALARTVEYFRIPRSVLTVCLGKSTYARCGIIVNVTPFEPEWEGYVTLEFSNTTPLPAKIYAGEGCAQVLFFESDEECEISYKDRGGKYQGQVGVTLPKI
MGSDKIHHHHHHMSIRGKAFIVGAYEHPGRNLPDHSVQQIHAECAMGALSDAGLSIKDVDGYFSNGQLGFGGISMAEYLGLRLSYIDSTFTGGSSYMAHVGHAAAAIAAGKCKVALITQGAKVRGVIRGAKHTADTPEFPFETVYGETNAAIYALAARRHMHEYGTTAEQLAAVKVAAAAYAQHNPNALLRKLVSIDDVMNSPIIADPLHRLDCCVVTDGGGALVLVAPEIARSLKRQSVKLLGHAEAIRHGGDGPSDFASTAAALSGPRAFTEAGVSPRDVRYASIYDSFTITVIMTLEDLGFCGKGEGGAFVASGALGLDGLLPINTDGGGLCNNHPGYQGGMVRTIEAVRQLRGEANPNTQVKNCTIALAHGTGGGMSRHASVTLVLGQEDA
MGSDKIHHHHHHMSKEIDIEYYHQLALQKQKEHRKVLANLKKKPPKNLDKIAQQIHQEVFEEIDCTACANCCKTLGPDFKEADITRIAKYFKMKLPAFEAEFLQVDADGDKVFKSMPCPFLGGDNLCSIYDVRPKACREFPHTDRKKIHQINHLTIKNTLTCPAAYLFVEKLKDKL
MGSDKIHHHHHHMSKFKVKRLTAHILMLKVINDMLKYSFHLTLTQVKLLNLLVKYDNSDSNSASIDRLLKMKEIQSKMALLQMLSYLNNHQWLLKGRDQRDQRKLTISINKMHIDKIEYMNNELSDYIERYFGQYTFDFSCDYVSYLLSSQELFRNLKCYLNMCQLTLEELYVLGILNLHKGQLTVKELQGEFHHPIFAVSPILKCLILKGLVKKERCELDERRVIVTIKREKFSKVTMLIQACYNYLEKGIQVKLNNK
MGSDKIHHHHHHMSKLNMKEWINEIIQKKEVVAMPIMTHPGIEMIGKTVRDAVTDGQVHYNAIKALSEKYPTAAATVIMDLTVEAEAFGAEIVFPENEVPSVVGRLLNDEEAIDKLEIPALNKGRIPQYLKANMLAAKTITDRPVFAGCIGPYSLAGRLYDMSEIMMLIYINPEAANSLLKKCSDFILRYCMALKATGVNGVVMAEPAAGLLSDEDCTQYSSVFIKEIVEKVQDDHFTVILHNCGNTGHCTKAMVATGAAAYHFGNKIDMVEALKEVPADALAMGNLDPVSLFKAATPEVMKKATLDLLEATRSYPNFVLSSGCDTPPHTPSENIDAFFAALNEFNNA
MGSDKIHHHHHHMSKTIQAITNQIWSMANELRGNMDASEYKNYILAFMFYRYLSEHQERFLVEDEIISPAPGETVQDAYVREAVGNDLVEHLENTASHLGYAIEPEDTWARLVAKIDNSEIVASDYQTIFDHFNANVELNRDAMEDFRGVFNDINLGDSRLGNSTVARAKSLNSIVKLIDSIEYKNDEGKDILGEIYEYLIGQFAASAGKKGGEFYTPHQVSKILAKIVTLGLEKSDTSFSVYDPTMGSGSLLLTVRNELPQGQHIKFYGQEMNTTTYNLARMNLMMHQVSYSNMILNNADTLESDWPDGVDELGIDQPRSFDAVVANPPYSAKWDNRESKLKDPRFMEYGKLAPASKADFAFILHSLYHLNNTGTMAIVLPHGVLFRGAAEGHIRKLIIEKNYLDAVIGLPANLFYGTGIPTTILVFKKNRQTKDVFFIDASKEFEKGKNQNHLSDDMVEKIVETYHNRQSVDKYAHLASIEEIVENDYNLNIPRYVDTFEEEEEIDLGQVTQQLEQDRLEIRALEDKIRQQLKTLGVDF
MGSDKIHHHHHHMSKVFIATANAGKAHDADIFSVSACNSFTVSCSGDGYLKVWDNKLLDNENPKDKSYSHFVHKSGLHHVDVLQAIERDAFELCLVATTSFSGDLLFYRITREDETKKVIFEKLDLLDSDMKKHSFWALKWGASNDRLLSHRLVATDVKGTTYIWKFHPFADESNSLTLNWSPTLELQGTVESPMTPSQFATSVDISERGLIATGFNNGTVQISELSTLRPLYNFESQHSMINNSNSIRSVKFSPQGSLLAIAHDSNSFGCITLYETEFGERIGSLSVPTHSSQASLGEFAHSSWVMSLSFNDSGETLCSAGWDGKLRFWDVKTKERITTLNMHCDDIEIEEDILAVDEHGDSLAEPGVFDVKFLKKGWRSGMGADLNESLCCVCLDRSIRWFREAGGK
MGSDKIHHHHHHMSKVFIVGAAGNVGRRLTQQLAQRGHTLMAMHRHPDQADAIQAAGGVSVLGDITQISATDLATLMSGNDAIVFSAGAGGKGIQLTNDVDGKGLELAVEAAQLAGIQRFILVSVFPDALRGGSVSASFENYMLVKKHADVHLVSTDLDWVILRPGTLLDEVGTGKVNAAVAIPYGSVSRDDVAATLVELIEQPKVNRIIIELTQGEIPINDAISRLVAQ
